This assay has as its target 6-P-β-glucosidase from Lactobacillus plantarum WCFS1 (LpPgb1) (Lactobacillus plantarum WCFS1). Briefly: SEC; Superdex 200 16/60, 20 mM HEPES-NaOH pH 8.0, 250 mM NaCl, 2 mM DTT, proteins ~3 mg/ml, 1 ml/min, calibrated with ferritin, aldolase, conalbumin and ovalbumin; oligomeric state from the elution volume. On the technique in general: Size exclusion chromatography separates by hydrodynamic size, large species first.

The stoichiometry N is the number of molecules, sites or subunits per partner or assembly.

Consider “6-P-β-glucosidase from Lactobacillus plantarum WCFS1 (LpPgb1) (enzyme)”, for which the stoichiometry N was 2.

(Values after PMC3605045, “GH1-family 6-P-β-glucosidases from human microbiome lactic acid bacteria” (Acta Crystallographica Section D: Biological Crystallography, 2013).)
